{"source": "patent US20050084496A1", "about": "(GOVERNMENT OF THE UNITED STATES OF AMERICA REP BY THE SECR …, published 2005)", "key": {"[1]": {"target": "T1, glycosylated gp120 (HIV-1SF2 gp120) (HIV-1 SF2, UniProt P03378 32-509, limits assumed, glycosylated)", "T1 construct": "domain: gp120", "experiment": "ELISA, glycosylated and nonglycosylated HIV-1SF2 gp120 on plate, serial dilutions of scytovirin"}, "sCD4": {"target": "T2, sCD4 (UniProt P01730 26-394)", "T2 construct": "Printed only as sCD4 (soluble CD4)", "experiment": "ELISA, 100 ng target on plate, detected with anti-scytovirin rabbit polyclonal"}, "human serum albumin": {"target": "T3, human serum albumin (human, UniProt P02768 25-609)", "T3 construct": "also called HSA; HAS", "T3 sequence (P02768 25-609 limits assumed)": "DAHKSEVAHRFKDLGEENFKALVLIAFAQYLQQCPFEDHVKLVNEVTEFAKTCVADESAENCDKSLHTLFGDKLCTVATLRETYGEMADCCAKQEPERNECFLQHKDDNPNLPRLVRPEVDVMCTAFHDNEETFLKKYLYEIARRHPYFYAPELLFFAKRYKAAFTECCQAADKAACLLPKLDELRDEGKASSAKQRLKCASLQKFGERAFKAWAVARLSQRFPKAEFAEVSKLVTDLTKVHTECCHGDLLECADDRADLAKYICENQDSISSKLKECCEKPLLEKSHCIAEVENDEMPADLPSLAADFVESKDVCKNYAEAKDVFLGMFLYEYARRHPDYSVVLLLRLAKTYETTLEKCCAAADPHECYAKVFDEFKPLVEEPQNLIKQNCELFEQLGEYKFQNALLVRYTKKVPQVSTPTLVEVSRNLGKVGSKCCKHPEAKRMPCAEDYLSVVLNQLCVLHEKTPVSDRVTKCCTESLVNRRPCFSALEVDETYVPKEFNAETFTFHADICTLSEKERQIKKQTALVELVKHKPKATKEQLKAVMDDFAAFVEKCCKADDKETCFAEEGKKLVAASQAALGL", "experiment": "ELISA, 100 ng target on plate, detected with anti-scytovirin rabbit polyclonal"}, "BSA": {"target": "BSA (UniProt P02769 25-607)", "sequence (P02769 25-607 limits assumed)": "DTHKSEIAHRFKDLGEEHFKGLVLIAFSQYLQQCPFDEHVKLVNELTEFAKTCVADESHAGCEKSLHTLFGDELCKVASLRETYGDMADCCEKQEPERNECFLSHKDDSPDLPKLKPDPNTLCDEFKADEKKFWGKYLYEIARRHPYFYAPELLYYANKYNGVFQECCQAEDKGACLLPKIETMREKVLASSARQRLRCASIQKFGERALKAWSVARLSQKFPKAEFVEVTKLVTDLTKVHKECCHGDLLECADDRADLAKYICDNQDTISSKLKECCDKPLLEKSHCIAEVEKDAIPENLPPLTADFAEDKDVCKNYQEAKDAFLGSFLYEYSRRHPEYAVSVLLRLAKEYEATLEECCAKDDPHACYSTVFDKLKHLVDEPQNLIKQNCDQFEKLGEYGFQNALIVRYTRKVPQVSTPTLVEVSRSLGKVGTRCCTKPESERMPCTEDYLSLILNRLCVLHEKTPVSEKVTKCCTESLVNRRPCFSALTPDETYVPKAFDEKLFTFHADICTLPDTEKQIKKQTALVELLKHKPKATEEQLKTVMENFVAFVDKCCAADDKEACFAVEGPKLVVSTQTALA", "experiment": "ELISA, 100 ng target on plate, detected with anti-scytovirin rabbit polyclonal"}}, "data": [{"binder": "scytovirin (other, Natural protein purified from an aqueous extract of cultured Scytonema varium; It has 95 residues, weighs 9,713 Da and has five intrachain disulfides (Cys20-Cys26, Cys32-Cys38, Cys68-Cys74, Cys80-Cys86, Cys7-Cys55); also called wild-type scytovirin; natural scytovirin) GSGPTYCWNEANNPGGPNRCSNNKQCDGARTCSSSGFCQGTSRKPDPGPKGPTYCWDEAKNPGGPNRCSNSKQCDGARTCSSSGFCQGTAGHAAA", "values": [{"measurement": "binding result", "setting": "[1]", "result": "binds"}, {"measurement": "binding result", "setting": "sCD4", "result": "no binding (tested: 100 ng of scytovirin)"}, {"measurement": "binding result", "setting": "human serum albumin", "result": "no binding (tested: 100 ng of scytovirin)"}, {"measurement": "binding result", "setting": "BSA", "result": "no binding (tested: 100 ng of scytovirin)"}]}]}
